# The supplement of paper PMC6757056
# ± gives the standard deviation of the averaged measurements.
# B1: library; a variant is named by its letters at N, in order (parent)
# chain: GCUGUCACCGGUGCUUGGUACGUUAUAUUCAGCCGGUCUGAUGAGUCUNNNNNNAGACGAAACAGC
# Legend:
# (6R,S)-folinic acid [1] = variants of: B1; assay: normalized RNA/DNA level without ligand (relative to sTRSVctl = 100) (log10 (% of sTRSVctl)); HEK293T overexpressing SLC46A1; higher = less ribozyme self-cleavage, higher mRNA level; conditions: without (6R,S)-folinic acid; ligand present: no
# Summary of the method: (§1)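 Ribozyme switch library plasmids linked to reporters were introduced into HEK293T cells at 4 µg per 6-well well, with ligand, if any, added 1 h before. Total RNA was extracted with EDTA 72 h later, reverse-transcribed, amplified, barcoded and sequenced. RNA level was computed from RNA over DNA reads relative to a spiked-in non-cleaving sequence or the top sequences, then scaled and log-transformed. The top set was 25 sequences, values were ×100 and log10, and the cutoff was ≥100 DNA reads.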
# (6R,S)-folinic acid [2] = variants of: B1; assay: normalized RNA/DNA level with ligand (relative to sTRSVctl = 100) (log10 (% of sTRSVctl)); HEK293T overexpressing SLC46A1; ligand concentration (+) RNA-Seq: 6 mM; higher = less ribozyme self-cleavage, higher mRNA level; conditions: with (6R,S)-folinic acid; ligand present: yes
# Summary of the method: as §1
Variant,"normalized RNA/DNA level without ligand (log10) ((6R,S)-folinic acid [1])","normalized RNA/DNA level with ligand (log10) ((6R,S)-folinic acid [2])"
GCUGUCACCGGUGCUUGGUACGUUAUAUUCAGCCGGUCUGAUGAGUCUGCAGCAAGACGAAACAGC [GCAGCA],2.048 ± 0.018,2.06 ± 0.037
GCUGUCACCGGUGCUUGGUACGUUAUAUUCAGCCGGUCUGAUGAGUCUGCAGCCAGACGAAACAGC [GCAGCC],2 ± 0.024,2.02 ± 0.025
GCUGUCACCGGUGCUUGGUACGUUAUAUUCAGCCGGUCUGAUGAGUCUUCACUCAGACGAAACAGC [UCACUC],2.07 ± 0.01,2.05 ± 0.026
GCUGUCACCGGUGCUUGGUACGUUAUAUUCAGCCGGUCUGAUGAGUCUUCACUAAGACGAAACAGC [UCACUA],1.9969 ± 0.0017,2.019 ± 0.0085
GCUGUCACCGGUGCUUGGUACGUUAUAUUCAGCCGGUCUGAUGAGUCUUCACUUAGACGAAACAGC [UCACUU],2.021 ± 0.0092,2.04 ± 0.018
GCUGUCACCGGUGCUUGGUACGUUAUAUUCAGCCGGUCUGAUGAGUCUUCACUGAGACGAAACAGC [UCACUG],1.906 ± 0.0057,2.015 ± 0.02
GCUGUCACCGGUGCUUGGUACGUUAUAUUCAGCCGGUCUGAUGAGUCUUCACGCAGACGAAACAGC [UCACGC],2.036 ± 0.0036,1.97 ± 0.023
GCUGUCACCGGUGCUUGGUACGUUAUAUUCAGCCGGUCUGAUGAGUCUUCACGGAGACGAAACAGC [UCACGG],1.965 ± 0.019,2 ± 0.043
GCUGUCACCGGUGCUUGGUACGUUAUAUUCAGCCGGUCUGAUGAGUCUUCACGUAGACGAAACAGC [UCACGU],1.98 ± 0.036,2.01 ± 0.03
GCUGUCACCGGUGCUUGGUACGUUAUAUUCAGCCGGUCUGAUGAGUCUGCAGAAAGACGAAACAGC [GCAGAA],1.942 ± 0.0071,2.01 ± 0.044
GCUGUCACCGGUGCUUGGUACGUUAUAUUCAGCCGGUCUGAUGAGUCUGCAGAGAGACGAAACAGC [GCAGAG],1.808 ± 0.01,2 ± 0.074
GCUGUCACCGGUGCUUGGUACGUUAUAUUCAGCCGGUCUGAUGAGUCUGCAGACAGACGAAACAGC [GCAGAC],1.98 ± 0.037,2.02 ± 0.022
GCUGUCACCGGUGCUUGGUACGUUAUAUUCAGCCGGUCUGAUGAGUCUUCAGCCAGACGAAACAGC [UCAGCC],2.044 ± 0.0032,1.99 ± 0.039
GCUGUCACCGGUGCUUGGUACGUUAUAUUCAGCCGGUCUGAUGAGUCUUCAGCAAGACGAAACAGC [UCAGCA],2.032 ± 0.016,2.062 ± 0.02
GCUGUCACCGGUGCUUGGUACGUUAUAUUCAGCCGGUCUGAUGAGUCUCCACGGAGACGAAACAGC [CCACGG],2.06 ± 0.029,2.04 ± 0.048
GCUGUCACCGGUGCUUGGUACGUUAUAUUCAGCCGGUCUGAUGAGUCUACAGCCAGACGAAACAGC [ACAGCC],2.03 ± 0.0033,2.04 ± 0.045
GCUGUCACCGGUGCUUGGUACGUUAUAUUCAGCCGGUCUGAUGAGUCUCCAGCGAGACGAAACAGC [CCAGCG],1.97 ± 0.025,1.99 ± 0.027
GCUGUCACCGGUGCUUGGUACGUUAUAUUCAGCCGGUCUGAUGAGUCUCCAGCAAGACGAAACAGC [CCAGCA],2.01 ± 0.031,1.985 ± 0.0059
GCUGUCACCGGUGCUUGGUACGUUAUAUUCAGCCGGUCUGAUGAGUCUCCAGAGAGACGAAACAGC [CCAGAG],1.909 ± 0.013,2.014 ± 0.019
GCUGUCACCGGUGCUUGGUACGUUAUAUUCAGCCGGUCUGAUGAGUCUCCAGACAGACGAAACAGC [CCAGAC],1.99 ± 0.023,1.98 ± 0.051
